Results on six molecules are retold here after publication PMC2885190 (The Journal of Biological Chemistry, 2010).

The target of assay [1] is T1, Recombinant gp120 from HIV-1 IIIB (HIV-1 IIIB, UniProt P04578). The experiment in a line: cell-based or functional assay.
Assay [2] deals with T1, Recombinant gp120 from HIV-1 IIIB. The assay is described as follows: SPR. For orientation: In SPR one partner is held on a chip, and binding of the other changes the refractive index at the surface.

Substitutions are numbered along the chain they refer to.

B1: A12 mutant 1 (Tyr101 to Ala101) (VHH)
VHH: AVQLVESGGGLVQAGGSLRLSCTASGRISSSYDMGWFRQAPGKEREFVAAISWSGGTTDYADSVKGRFAISKDNAKNAVSLQMNSLKPEDTAVYYCAAKWRPLRYSDYPSNSDYADWGQGTQVTVSS
On to B1, for which, in assay [1], the “neutralisation of HIV-1 IIIB, TZM-bl luciferase assay, IC50” value (“neutralisation of HIV-1 IIIB” below) is < 1 µg/mL.

B2: A12 VHH (VHH)
VHH: B1 VHH with A115Y
A word on the Kd: it is the constant that tells how readily two partners part at equilibrium. For orientation: koff means a measure of how fast the partners let go of each other. As usually defined, the kon is the rate constant with which the complex forms. As for B2, in assay [2], the dissociation constant (Kd) was found to be 0.1 nM, the koff stood at 2.98e-05 s⁻¹ and the kon was determined as 273000 M⁻¹ s⁻¹.

B3: D7 VHH (VHH)
VHH: B1 VHH with V12A, A24V, I28T, Y32H, D59N, Y108N, A115N, D116Y
For the molecule B3, in assay [2], the Kd stood at 2.9 nM, the koff was 0.000551 s⁻¹ and the kon turned out to be 155000 M⁻¹ s⁻¹.

B4: mutant 7 of A12/D7 (VHH)
VHH: B1 VHH with V12A, A24V, I28T, Y32H, D59N, Y108N, A115N
For the molecule B4, in assay [1], the “neutralisation of HIV-1 IIIB” value was < 1 µg/mL.

B5: A12 mutant 3 (Tyr101 to Gln101) (VHH)
VHH: B1 VHH with A115Q
Consider B5, for which the “neutralisation of HIV-1 IIIB” value in assay [1] was < 1 µg/mL.

B6: A12 mutant 2 (Tyr101 to Asn101) (VHH)
VHH: B1 VHH with A115N
Regarding B6, in assay [1], the “neutralisation of HIV-1 IIIB” value was < 1 µg/mL.
